Experimental findings from the nanobody polyreactivity screen of Harvey et al. (2022) are described below.

A short description of this series: yeast display, Sf9 membrane polyspecificity reagent, FACS + sequencing; frameworks hold sequencing errors. In short, it runs like this: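 Sorting gates, low and high (top ~1%), were placed on anti-HA fluorescence to track expression and on streptavidin fluorescence to track reagent binding. A clone's polyreactivity label is taken from the gate it came out of. The reagent was 10% biotinylated, detergent-solubilized Sf9 membrane, applied for 1 hour at 4 °C to galactose-induced yeast display cells.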
As for “KVQLVESAVGLVQAGGSLRLSCAASGPTFWRNAMGWYRQAPGKERELVAAISRGGSTNYADSVKGRFTISRDNAKNTVYLLMNSLKPEDTAVYYCAARYYYRYNYWGQGTQVTVSS”, the “polyreactivity (PSR sort gate)” value is reported as “high polyreactivity”. The entry for “QVQLVESGGPLVQAGGSLRLSFAACGFTLWSYSLGWYRQAPGKESELVAAINSRGGRTSYADSVKGRFTISRDNAKNTVYLQINRLKPEDTAVYYCATDPISRARLYGQRDYWGQGTQVTVSS” is “high polyreactivity”. As for “QVQLVETGGGLVQAGGSLRLSCAASGFTYRRYAMGWYRQAPGKERELVAAINWNGDSTYYADSVKGRFTISRDNAKNTVYLQMNSLKPEDTAVYYCNAGWYGGRYSKFDYWGQGTQVTVSS”, the “polyreactivity (PSR sort gate)” value is “high polyreactivity”.

Regarding “QVQLVESGGGLVQAGGSLRLSCAASGRIFRRSALGWSRQAPGKEREFVAAISSGGSTYYADSVKGRFTISRDNAKKYRLFTDEQPETGRYRGLLLRCVRYDVNLYDYWGHGTQVTVSS”, the “polyreactivity (PSR sort gate)” value is “low polyreactivity”. Turning to “QVQLVESGGGLVQAGGSLRLSCAASGSTLWYNAMGWYRQGPGKERELVASITSDGGSSTYADSVKGRFTISRDNAKYTVYLQMNSLKPEDTAVYYCAADWPIVQYDYWGQGTQVTVSS”, the “polyreactivity (PSR sort gate)” value is given as “low polyreactivity”. In the case of “QVQLVESGGGLVQAGGSLRLSCAASGRIFGVNAMGWYRQAPGKERELVAAISSGDSTYYADSVKGRFTISRDNAKNTVYLQMTCLKPEDTAVYYCAADVLGTTTTVGGFNYWGQGTQVTVSS”, the “polyreactivity (PSR sort gate)” value is on record as “low polyreactivity”. Next, “QVQLVESGGALVQAGGSLRLSCAASAFIFRINAMGWYRQAPGKERELVAAISGSGGRTYYADSVKGRFTISRDNAKNTVYLQMNSLKPVDTAVYYCARSSGYGFNYWGQGTQVTVSS”: “high polyreactivity”; “QVQLVESGGGLVQAGGSLRLSCASSGNTFERYAMGWYRQAPGKERELVAAITSSGGSTYYADSVKGRFTISRDNAKNTVYLQMNSLKPEDTAVYYCAASWRPRFYWGQGTQVTVSS”: “high polyreactivity”. Next, “QVQLVESGGGLVQAGGSLRLSCADSGRIFRRYAMGWYRQAPGKERELVAAITTSGGSTYYADSVKGRFTISRDNAKNTVYLQMNSLKPEDTAVYYCNARSSVYGHRKGSARIPRYDYWGQGTQVTVSS”: “high polyreactivity”; “QVRLVESGGGLVQAGGSLRLSCAASGRTFRIYAMGWYRQAPGKERELVAAIRWSGGTTYYADSVKGRFTISRDNAKNTVYLQMNSLKPEDTAVYYCNTNSYYEDDYWGQGTQVTVSS”: “high polyreactivity”. Take “QVQLVDSGGGLVQAGGSLRLSCAASGNTFRIYAMAWYRQAPGKERELVAAISQSGGSTYYADSVKGRFTISRDNAKNTVYLQMNSLKPEDTAVYYCAATGARRKFYYWGQGTQVTVSS”: the “polyreactivity (PSR sort gate)” value is recorded as “high polyreactivity”. With “QVQLVESGGGLVQAGGSLRLSCAASGSTFYSYAMGWYRQAPGKERELVAAISWDGGRTYYADSVKGRFTISRDNAKNTVYLQMNSLKPEDTAVYYCSADYPTYRHYYWGQGTQVTVSS”, the “polyreactivity (PSR sort gate)” value was “low polyreactivity”. The entry for “QVQLVESGGGLVQAGGSLRLSCAASGSTFYTYTMGWYRQAPGKERELVAAITWSGGSTYYADSVKGRFTISRDNANNTVYLQMNSLKPEDTAVYYCNADQDYKGARPSGMDYCGQGTQVTVSS” is “low polyreactivity”; for “QVQLVESGGGLVQAGGSLRLSCAASGSTFTANAMGWYRQAPGKERELVASISARDGSTYADSVKGRFTISRDNAKKTVYLQMNSLKPEDTAVYYCNAAYFHIFPYDYDYWGQGTQVTVSS” it is “low polyreactivity”. The entry for “QVQLVESGGGLVQAGGSLRLSCAASGRTFRTYAMGWYRQAPGKERELVAAISFSDGSTYYADSVKGRFTISRDNAKNTVYLQMNSLKPEDTAVYYCAKEYEYPYYIRYQVGYDFDYWGQGTEVTVSS” is “low polyreactivity”. The entry for “QVQLVESGGGLVQAGGSLRLSCAASGRTFPYNAMGWYRQAPGKERELVAVISSSGGSTYYADSVKGRFTISRDNAKNTVYLQMNSLKPEETAVYYCNTRPYYYRRPGYRYSGYDYWGQGTQVTVSS” is “high polyreactivity”; for “QVQLVESGGGLVQAGRILRLSCAASGIILGRYAMGWYRQAHGKERELVAAITASGGRTYYADSVKGRFTISRDNAKNTVYLQMNSLKPEDTAVYYCNTVYWGYKSHYDYWGQGTQVTVSS” it is “high polyreactivity”; for “QVQLVESGGGLVQAGGSLRLSCAASGFIFSSYALGSYRQAPGKERELVAAIDLSGDSTYYADSVKGLFTISRDNAKNTVYLQMNSVKPEDTAVYYCAAQYYDYWYDSDYWGQGTQVTVSS” it is “high polyreactivity”. As to “QVQLVESGGGLVQAGGSLRLSCAASGRIFQGYAMGWYRQAPGKEREFVAVISTSGGRTSYADSVKGRFTISRDNAKNTVYLQMNSLKPEDTAVYYCNALYGRYGWSKNYYWGQGTQVTVSS”, the “polyreactivity (PSR sort gate)” value is listed as “high polyreactivity”. With “QVQLVESGGGLVQAGGSLRLSCAASGSTFTGNAMGWYRQAPGKERELVASINGSSGSTYYADSVKGRFTISRDNAKNTVYLQMNSLKPEDTAVYYCAKDSFLHFPLVGWVGLEYWGQGTQVTVSS”, the “polyreactivity (PSR sort gate)” value is on record as “low polyreactivity”. Take “QDQLVESGGGLVQAGGSLRLSCAASGFTFNWKDMGWYRQAPGKERELVAAISGGASTYYADSVKGRFTISRDNAKNTVYLQMNSLKPEDTAVYYCAADLDEWGYLFDYWGQGTQVTVSS”: the “polyreactivity (PSR sort gate)” value was “low polyreactivity”. The entry for “QVQLVESGGGLVQAGGSLRLSCAASGSIFRSYAMGWYRQAPGKERQLVARISKRGGSTYYADSVKGRFTISRENAKNTVYLQMNSLKPEDSAVYYCNASYFRYRYNRYVYWGQGTQVTVSS” is “high polyreactivity”; for “QVQLVESGGGLVQAGGSLRLSCAASGSTFGRYGMGWYSQAPGKERELVAAISKNAGSTYYADSVKGRCTISRDNAKNTVYLQMNSLKPEDTAVYYCAADWRTKGYDSLGQGTQVTVSS” it is “high polyreactivity”; for “QVQLVESGGGLVQAGGSLRLSCAASGRIVGWYAMGWYRQAPGKERELVAGINYGGGRTYYADSVKGRFTISRDNAKNTVYLQMNSLKPEDTAVYYCAAGISGHYYWGQGTQVTVSS” it is “high polyreactivity”. Next, “QVHLVESGGGLVQAGGSLRLSCAASGSILLRYAMGWYRQAPGKERELVAAIRTIGASTYYADSVKGRFTISRDNAKNTVYLQMNSLKPEDTAVYYCNAYLAEVLPLGKGRLYDYWGLGTQVTVSS”: “low polyreactivity”. Next, “QVQLVESGGGLVQAGGSLRLSCAASGSTSPNAMGWYRQAPGKERELVAAIWSGGTYYADSVKGRFTISRDNAKNTVYLQLNSLKPEDTAVYYCAVTGVYRGFRYGYLGQGTQVTVSS”: “low polyreactivity”.

“QVQLVESGGGVVQAGGSLRLSCAASGFIFTFYAMGWYRQAPGKERELVAAITGRGGRTYYADSVKGRFTISRDNAKNTVYLQMNSLKPEDTAVYYCAARYRYSVTPGYVYWGQGTQVTLSS”: the “polyreactivity (PSR sort gate)” value is on record as “high polyreactivity”.

Take “QVQLVESGGGLVQAGGSLRLSCAASGFIFETNAMGWYRQAPGKERELVAAISSRGGSTYYADSVKGRFTISRDNAKNTVYLQMNSLKPEDTAVYYCAAKLVVSYGQEYDYWGQGTQVTVSS”: the “polyreactivity (PSR sort gate)” value is reported as “low polyreactivity”. As to “QVQLVESGGGLFQAGGSLRLSCAASGFTIYHNAMRWYRQEPGKERELVAAISSSGDSTYYADSVKGRFTISRDNAKNTVYLQMNSLKPEDTAVYYCNDYFYYLSLYYYYWFNYDYWGQGTQVTVSS”, the “polyreactivity (PSR sort gate)” value is given as “low polyreactivity”. “QVQLVESGGGLVQAGGSLRLSCAASGRTFVRNAMAWYRQAPGKERELVAAITYGGGNTYYADSVKGRFTISRDNAKNTVYLQMNSLKPEDTAVYYCAKRRLYWSGQGWVRTYGYWGQGTQVTVSS”: the “polyreactivity (PSR sort gate)” value was “high polyreactivity”. For “QVQLVESGGGLVQAGGSLRLSCAACGIPLRLNAIGWYRQAPGKERELVARITWRGSTYYADSVKGRFTISRDNAKNTVYLQMNSLKPEDTAVYYCAADNRSWQPPTILPPGASDYWGQGTQVTVSS”, the “polyreactivity (PSR sort gate)” value is “low polyreactivity”.

As to “QVQLVESGGGLVQAGGSLRLSCAASGRIFGDYAMGWYRQAPGKERELVARITWSGTGTYYADSVKGRFTISRDNAKNTVYLQMNSLKPEDTAVYYCNADWQVQWYYYWGHGTQVTVSS”, the “polyreactivity (PSR sort gate)” value is “low polyreactivity”. As to “QVHLVESGGGLVQAGGSLRLSCAASGSIYHNAMGWYRQAPGKERELVAAITSSGGRTYYADSVKGRFTISRDNAKNTVYLQMNSLKPEDTAVYYCNALAHQYHRYEFGYWGQGTQVTVSS”, the “polyreactivity (PSR sort gate)” value is recorded as “low polyreactivity”. The entry for “QVQLVESVGGLVQAGGSLRLSCAASGSTFRYYAMGWYRQAPGKERELVAAITGSGGSTYYADSVKGRFTISRDNAKNTVYLQMNSLKPEDTAVYYCAAYCSRSILRYDSWGQGTQVTVSS” is “high polyreactivity”. Consider “QVQLVESGGGLVQAGGSLRLSCDASVSIFQPYAMGWYRQAPGKERELVAAISSSGGSTTYADSVKGRFTISRDNAKNTVYLQMKSLKPEDTAVYYCAADSADDMGYWGQGTQVTVSS”, for which the “polyreactivity (PSR sort gate)” value is “low polyreactivity”. As for “QVQLVESGGGLVQAGGSLRLSCAASGSTFTYYAMGWYRQAPGKERELVADISRDGGSTYYADSVKGRFTISRDNAKNTVNLQMNSLKPEDTAVYYCATDMVYKYDYWGQGTQVTVSS”, the “polyreactivity (PSR sort gate)” value was “low polyreactivity”. The entry for “QVQLVESGGGLVQAGGSLRLSCAASGSIFFSNVMGWSRPAPGKERELVAAITRGGGTNYADSVKGRFTISRDNAKNTVYLQMNSLKPEDTAVYYCNRDPQKYRWIPRYDYWGQGTQVTVSS” is “low polyreactivity”; for “QVQLVESGGGLVQAGGSLRLSCAASGSTFYDYAMGWYRQAPGTEREFVAAISGSAGSTYYADSVKGRFTISRDNAKNTVYLQMNSLKPEDTAVYYCATDYGWEDYNYWGQGTQVTVSS” it is “low polyreactivity”.

“QVQHVESAGGLVQAGGILRLSCAASGRIFYPYAMGWYRQAPGKERELVAAISSSGGSTYYADSVKGRFTISRDNAKNTVSLQMNSLKPEDTAFYYCNKDFQYYPRIFGYWGQGTQVTVSS”: the “polyreactivity (PSR sort gate)” value is “high polyreactivity”. Take “QVQLVESGGGLVQAGGSLRLSCAASGSTFTYYAMGWYRQAPGKERELVASINWSGGSTRYADSVKGRFTISRDNAKNTVYLQMNSLKPEDTAVYYCAARKSPRSQVRGRSYYWGQGTQVTVSS”: the “polyreactivity (PSR sort gate)” value is given as “high polyreactivity”. Take “QVQLQESGGGLVQAGGSLRLRCAASGYISAGRQMGWYRQGPGKEREFVATINGGATTNYADSVKGRFTISRDNAKNSVYLQMNSLKPEDTAVYYCAVRTYIYDIHRYWGQGTQVTVSS”: the “polyreactivity (PSR sort gate)” value is “high polyreactivity”.
